Numbering of substitutions follows the chain as printed. Numbers in names are those of the source.
B1: HKU1B receptor binding domain (residues 323-607) (domain or fragment)
chain: NLPDCDIDNWLNNVSVPSPLNWERRIFSNCNFNLSTLLRLVHVDSFSCNNLDKSKIFGSCFNSITVDKFAIPNRRRDDLQLGSSGFLQSSNYKIDISSSSCQLYYSLPLVNVTINNFNPSSWNRRYGFGSFNLSSYDVVYSDHCFSVNSDFCPCADPSVVNSCAKSKPPSAICPAGTKYRHCDLDTTLYVKNWCRCSCLPDPISTYSPNTCPQKKVVVGIGEHCPGLGINEEKCGTQLNHSSCFCSPDAFLGWSFDSCISNNRCNIFSNFIFNGINSGTTCSNDL
modifications: biotinylated with the BirA biotin-protein ligase kit for the BLI experiment with nanobodies only
B2: HKU1B receptor binding domain with the R517A mutation (domain or fragment)
chain: B1 chain with R195A
B3: HKU1A receptor binding domain (residues 323-609) (domain or fragment)
chain: DLPDCDIDKWLNNFNVPSPLNWERKIFSNCNFNLSTLLRLVHTDSFSCNNFDESKIYGSCFKSIVLDKFAIPNSRRSDLQLGSSGFLQSSNYKIDTTSSSCQLYYSLPAINVTINNYNPSSWNRRYGFNNFNLSSHSVVYSRYCFSVNNTFCPCAKPSFASSCKSHKPPSASCPIGTNYRSCESTTVLDHTDWCRCSCLPDPITAYDPRSCSQKKSLVGVGEHCAGFGVDEEKCGVLDGSYNVSCLCSTDAFLGWSYDTCVSNNRCNIFSNFILNGINSGTTCSNDL
B4: TMPRSS2 (transmembrane-serine protease 2), wild type, on transfected 293T cells (receptor)
chain: MALNSGSPPAIGPYYENHGYQPENPYPAQPTVVPTVYEVHPAQYYPSPVPQYAPRVLTQASNPVVCTQPKSPSGTVCTSKTKKALCITLTLGTFLVGAALAAGLLWKFMGSKCSNSGIECDSSGTCINPSNWCDGVSHCPGGEDENRCVRLYGPNFILQVYSSQRKSWHPVCQDDWNENYGRAACRDMGYKNNFYSSQGIVDDSGSTSFMKLNTSAGNVDIYKKLYHSDACSSKAVVSLRCIACGVNLNSSRQSRIVGGESALPGAWPWQVSLHVQNVHVCGGSIITPEWIVTAAHCVEKPLNNPWHWTAFAGILRQSFMFYGAGYQVEKVISHPNYDSKTKNNDIALMKLQKPLTFNDLVKPVCLPNPGMMLQPEQLCWISGWGATEEKGKTSEVLNAAKVLLIETQRCNSRYVYDNLITPAMICAGFLQGNVDSCQGDSGGPLVTSKNNIWWLIGDTSWGSGCAKAYRPGVYGNVMVFTDWIYRQMRADG
B5: anti-TMPRSS2 nanobody VHH-A01 (VHH)
VHH: QVQLVESGGGLVQPGGSLRLSCVVSGFSLDYYAIGWFRQAPGKEREGVSCIGSSGDKTNYADSVKGRFTISRDNAKNTVYLQMNSLKPEDTAVYYCAAESALYSDCTEEQNPMLYDYWGQGTQVTVSS
B6: anti-TMPRSS2 nanobody VHH-D01 (VHH)
VHH: EVQLVESGGGLVQPGGPLRLSCASSGSTLEHYDIGWFRQVPGGLREGVSSITASGGRTNYADSVKGRFTISRDNGKNAVYLQMNSLKPEDTAVYYCAGKIGGRRNWVAPLDGFENAYWGQGTQVTVSS
B7: anti-TMPRSS2 nanobody VHH-C11 (VHH)
VHH: QVQLVESGGGLVQPGGSLRLSCAASGFTLDYYDIYWFRQAPGKEREGVSSITTSGGRTNYADSVKGRFTISRDNAKNTVYLQMNSLKPEDTAVYYCAAKVGGRRNWIAPLNGYENALWGKGTLVTVSS
B8: anti-TMPRSS2 nanobody VHH-F05 (VHH)
VHH: EVQLVESGGGLVQPGGSLRLSCAASGFTLDYYAIGWFRQAPGKEREGVSCISSSGDSIKYVDSVKGRFTISRDNAKNTVYLQMNSLKPEDTAVYQCAADALGSGCLTGNYDYWGQGTRVTVSS
B9: anti-TMPRSS2 nanobody VHH-A07 (VHH)
VHH: QVQLVESGGGLVQPGGSLRLSCTSSGSPLEHYDIIWFRQAPGREREGVSSITTSGGHTNYADSVKDRFTISRDNAKNVVYLQMNSLKPEDTAVYYCAGRVGGRRNWIVPLDGYDNAYWGQGTQVTVSS

Biological target: T1, S441A TMPRSS2 ectodomain, soluble (human, UniProt O15393 106-492, S441A)
Test: BLI

For B1, which Kd is on record?
Its Kd is 131 nM.

Biological target: T1, S441A TMPRSS2 ectodomain, soluble
Test: BLI
Remark: another data set of the same source

B1 was tested. Which Kd did it give?
Its Kd is 137 ± 20.8 nM.

Which Kd does the source give for B2 here?
Its Kd is 376 ± 96.4 nM.

With B3 as the binder, how does the Kd read?
Its Kd is 334 ± 66.2 nM.

Biological target: dimeric anti-TMPRSS2 VHH-A01-Fc (alpaca (Lama pacos))
Test: flow cytometry on cells

Does B4 bind?
Result: binds

Biological target: S441A TMPRSS2 ectodomain, soluble (human, UniProt O15393, S441A)
Test: BLI

Sequence of S441A TMPRSS2 ectodomain, soluble (human, UniProt O15393, S441A) (O15393 106-492 S441A): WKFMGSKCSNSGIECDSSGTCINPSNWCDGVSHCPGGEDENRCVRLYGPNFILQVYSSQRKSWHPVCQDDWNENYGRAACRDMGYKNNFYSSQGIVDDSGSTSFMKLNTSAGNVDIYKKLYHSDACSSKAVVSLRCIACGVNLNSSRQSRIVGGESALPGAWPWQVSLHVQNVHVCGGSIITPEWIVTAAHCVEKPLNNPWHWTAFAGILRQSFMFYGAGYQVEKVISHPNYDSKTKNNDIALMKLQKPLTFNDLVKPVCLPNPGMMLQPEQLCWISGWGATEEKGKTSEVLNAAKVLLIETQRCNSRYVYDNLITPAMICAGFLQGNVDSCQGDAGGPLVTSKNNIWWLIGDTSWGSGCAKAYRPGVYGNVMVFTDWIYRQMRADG

B5 was tested. Which Kd did it give?
Its Kd is 0.78 nM.

What about the koff of the same binder?
Its koff is 5.1e-05 s⁻¹.

How did the Kd turn out when B6 was run?
The Kd was 6 nM.

What about the koff of the same binder?
Its koff is 0.00048 s⁻¹.

B7 was tested. Which Kd did it give?
The Kd was 32.5 nM.

And the koff?
Its koff is 0.00023 s⁻¹.

What does the source list for B8?
Kd: 2.6 nM; koff: 0.00019 s⁻¹

B9 was tested. Which Kd did it give?
The Kd was 13.3 nM.

And the koff?
Its koff is 0.0011 s⁻¹.
